Reference: patent US20220380473A1, “ANTI-GAL3 ANTIBODIES AND USES THEREOF” (TrueBinding, Inc., priority 2019, published 2022)
“Also recorded” adds a separate entry of the source.

Experiments:
MBT-2 cells = assay: MBT-2 bladder tumor model, combination with anti-PD1 or anti-PD-L1; type: in vivo, mouse; conditions: 20 mg/Kg i.p.
Description: To evaluate the potential for GAL3-TIM3 blocking antibodies to influence tumor biology, studies were conducted in mice bearing MBT-2 bladder tumor xenografts in combination with other antibodies targeting the immunomodulatory checkpoint molecules PD-1 and PD-L1. Briefly, 7-week old female C3H/HeJ mice (Jackson Laboratory) were anesthetized by inhalation anesthetic (3 to 5% Isoflurane in medical grade air) and 1×10^6 MBT-2 cells (Sekisui XenoTech, LLC) in 0.1 mL PBS were subcutaneously injected into the right flank by using a syringe with a 25-ga needle. 7 days after tumor implantation, mice were randomly assigned into six groups (n=9-10). Mice were administrated intraperitoneally with isotype control mIgG2b (BioXCell), anti-Gal3 (mIMT001), anti-PD1 (RMP1-14, BioXCell) plus mIgG2b, anti-PD1 (RMP1-14) plus mIMT001, anti-PDL1 (10F.9G2, BioXCell) plus mIgG2b, and anti-PDL1 (10F.9G2) plus mIMT001. Isotype control and anti-Gal3 antibodies were dosed at 20 mg/Kg on day 7, 9, 12, 14 and 16; anti-PD1 (RMP1-14 10 mg/Kg) or anti-PDL1 (10F.9G2, 5 mg/Kg) were dosed on day 8, 12, and 15. Tumor volumes and body weights were monitored twice per week. The animals were humanely sacrificed when tumor volumes or animal health reached IACUC-defined endpoints. Results were expressed as mean±SEM, with statistical analysis performed by two-way ANOVA.

[1] = tested on: STAM HFD-CDAA mouse model of liver fibrosis; assay: STAM CDAA-HFD mouse model of liver fibrosis; type: in vivo
Description: To confirm that the observed reduction of liver fibrosis in the MCD mouse model was not unique to this setting, the activity of mIMT001 was explored in the STAM HFD-CDAA mouse model of liver fibrosis. Briefly, Two-day-old male C57Bl/6 mice were injected by a single subcutaneous injection of 200 ug of streptozotocin to cause islet destruction and then fed CDAA-high fat diet (Research Diet #A06071302) starting at 4 weeks of age and continuing for the entire duration of each study. At 8 weeks of age, mice were divided into two groups (seven mice each) based on ALT score. Mice were treated human anti-mIgG4 isotype control (hIgG4, 10 mg/kg) or human anti-Gal3 antibody (IMT001-4, 10 mg/kg) twice a week by intraperitoneal injection for 4 weeks. All animal care and procedures were approved by the Immutics IACUC.

[2] = tested on: mouse macrophage cell line RAW264.7; assay: IHC and flow cytometry staining of RAW mouse macrophages; type: cell-based
Description: The expression of Gal3 on mouse macrophages was detected by both IHC and Flow cytometry analysis. In the details of IHC, 100,000 cells per well were seeded overnight. On the second day, cells were washed once with PBS, fixed with 3% formaldehyde at room temperature for 10 min, then washed twice with PBS and blocked in PBS containing 10% FBS and […] for 1 h at room temperature. After blocking, cells were incubated with 10 μg/mL of 1st antibody mIgG-biotin (BioLegend) or IMT001-biotin at 4° C. overnight, washed three times with PBST, stained with avidin-HRP (1:1000) at room temperature for 1 h and then washed three times again with PBST. The staining was developed using peroxidase substrate and counterstained with Hematoxylin QS (Vector Laboratories).
In the experiment of flow cytometry, 100,000 RAW cells were blocked with 10% FBS plus 200 μg/mL hIgG on ice for 20 min, and then incubated with 100 μl 10% FBS HBSS solution that contains control mIgG (BD Biosciences) or IMT001 at 10 μg/ml on ice for 20 minutes. Then cells were washed and incubated with APC conjugated anti-mFc antibodies (Jackson ImmunoResearch) at 1:100 on ice for 20 min. After spinning, live/dead cells were stained with Violet dead cell stain kit (Life Technologies). Stained cells were subjected to flow analysis.

[3] = tested on: mouse unilateral ureteral obstruction (UUO) model of kidney fibrosis; assay: Mouse UUO model of kidney fibrosis (Example 32); type: in vivo; conditions: administered one day after UUO surgery
Text: To further evaluate the ability of GAL3-targeted antibodies with the ability to block TIM3-GAL3 assembly to impact fibrosis, we evaluated the impact of humanized IMT001-4 and IMT006-1 in the mouse unilateral ureteral obstruction (UUO) model of kidney fibrosis. Briefly, 8-week-old C57BL/6J male mice were divided into sham, UUO with HuIgG4−, and UUO with HuIMT001-4, HuIMT006-1, and UUO with metformin-treatment. HuIgG4, HuIMT001-4 and HuIMT006-1 were each administered by intraperitoneal route at 10 mg/kg Q2Dx3 whereas metformin (500 mg/kg/day) was administered to mice dissolved in drinking water. In some settings therapeutic antibodies or metformin was administered 1 day before UUO, whereas in other experiments therapeutic antibodies or metformin was administered 1 day after UUO. After 7 days of UUO surgery, mice were sacrificed, left kidney was harvested and fixed with 4% paraformaldehyde for immunohistochemistry (IHC) and blood was collected in Heparin-EDTA tubes for blood biochemistry analysis. Levels of plasma mouse TIM-1/KIM-1/HAVCR were measured using a commercial ELISA kit (Catalog #MKM100; R&D Systems, Minneapolis, Minn.) according to the protocol provided by the manufacturer. Levels of plasma mouse Lipocalin-2/NGAL were measured using a commercial ELISA kit (Catalog #DY1857; R&D Systems, Minneapolis, Minn.) according to the protocol provided by the manufacturer. 5 um sections of fixed kidney specimens were produced and processed for picosirius red staining as described for liver specimens above.
To evaluate the robustness of TIM3-GAL3 blocking antibodies in reducing kidney fibrosis, the ability of mIMT001 to inhibit fibrosis when administered one day after UUO surgery was evaluated. Following UUO surgery and treatment with isotype or control antibodies, kidney specimens were harvested and stained by IHC for Collagen 1a1 (Col1a1), a marker of kidney fibrosis.

Description for B16F10 cells: The animal experiments were conducted according to a protocol approved by the Molecular Medicine Research Institute Institutional Animal Care and Use Committee. C57BL/6 mice were placed in a facility accredited by the Association for Assessment and Accreditation of Laboratory Animal Care upon arrival. Thirty six of 7-week old female mice were randomly assigned into three groups (n=12). On day 0, B16F10 cells (2×10^5 in 0.1 mL PBS) were washed and resuspended in PBS before injection into the tail veins of mice using a syringe with a 27-ga needle. […] On day 21, the animals were humanely sacrificed and lung tissues were removed and fixed in a 10% buffered formaldehyde solution. The number of black metastatic colonies on one surface of the left lobes in the lungs were counted (FIG. 7B). Results were expressed as mean±SEM. The statistical analysis was performed in comparison with IgG control group using one-way ANOVA.

B1: IMT001: anti-Gal3 monoclonal antibody (Immutics); printed as mIMT001 (IMT001), murine (antibody, V domains shown)
VH: QIQLVQSGPELKKPGETVKISCKASGYTFTNYGMNWVKQAPGKGLKWMGWINTNTGEPTYVEEFKGRFAFSLETSASTAYLQINNLKNEDTATYFCAPYDNFFAYWGQGTLVTVSA
VL: DIVITQDELSNPVTSGESVSISCRSSKSLLYKDGKTYLNWFLQRPGQSPQLLIYLMSTHASGVSDRFSGSGSGTDFTLEISRVKAEDVGVYYCQQLVDYPLTFGAGTKLELK
- effect on tumor volume, single agent (MBT-2 cells): did not exhibit any significant decrement in tumor volume; also recorded: did not reduce tumor volumes
- % area picosirius red staining ([1]; liver, 10 mg/kg twice a week i.p. for 4 weeks): 1.66%
- reduction of picosirius red staining ([1]; vs isotype control): 67%
- IHC detection of Gal3 on macrophages ([2]; 10 μg/mL, vs mIgG control): clearly detected Gal3 expression on macrophages
- MFI of stained RAW cells vs isotype control ([2]; 10 μg/ml, flow cytometry): more than 10 folds
- reduction of tumor number (black metastatic colonies) (B16F10 cells; 10 mg/Kg i.p., day 21, vs isotype control): about 46%
- anti-tumor effect, tumor number (B16F10 cells; 10 mg/Kg i.p., vs isotype control): significant reduction of tumor number
- tumor burden as indicated by lung weight (B16F10 cells; vs isotype control): much less tumor burden
- Col1a1 staining, image quantification [3]: 9.17 intensity units
- Col1a1 staining, qualitative [3]: reduced levels of Col1a1 staining
- overall reduction in Col1a1 [3]: 48%
